Test results reported in paper PMC3686109.

Biological target: streptavidin (UniProt P22629 25-183)
Test: aptamer microarray

Chain of streptavidin (P22629 25-183): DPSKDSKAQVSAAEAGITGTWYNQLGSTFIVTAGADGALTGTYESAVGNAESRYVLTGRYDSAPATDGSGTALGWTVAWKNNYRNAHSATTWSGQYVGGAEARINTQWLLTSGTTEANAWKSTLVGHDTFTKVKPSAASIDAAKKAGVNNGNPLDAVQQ

ATTGACCGCTGTGTGACGCAACACTCAATTTTTTTTTTTT (structured_DNA) [St-2-1_T11]: binds.
